{"source": "patent US20260216242A1", "about": "(ALMAC DISCOVERY, published 2026)", "binders": {"B1": {"name": "A06 E06-hFc (S239/442C T366Y/Y407T), [G4S]3 linker, MC-vc-PAB-MMAE conjugate, #639 (Fc fusion, DAR 4)", "chain 1": "QVHLVESGGGLVQAGGSLRLSCAASGRTFLSMGWFRQAPGKEREFVAAISWTGGSTGYADSVKGRFTISRESDKETMYLQMNSLKPEDTAVYYCAARGDVYYGGDDATRYKYWGQGTQVTVSSGGGGSGGGGSGGGGSEPKSSDKTHTCPPCPAPELLGGPCVFLFPPKPKDTLMISRTPEVTCVVVDVSHEDPEVKFNWYVDGVEVHNAKTKPREEQYNSTYRVVSVLTVLHQDWLNGKEYKCKVSNKALPAPIEKTISKAKGQPREPQVYTLPPSRDELTKNQVSLYCLVKGFYPSDIAVEWESNGQPENNYKTTPPVLDSDGSFFLYSKLTVDKSRWQQGNVFSCSVMHEALHNHYTQKSLCLSPGK", "chain 2": "QVHLVESGGGLVQAGGSLRLSCAASRRSFSEYAMGWFRQAPGKEREFVAAIGWSGVIEYADSVKGRFTISRDNAKDTVYLQMNSLKPEDTAVYYCAAGLGIRVVSQTPAYWGQGTQVTVSSGGGGSGGGGSGGGGSEPKSSDKTHTCPPCPAPELLGGPCVFLFPPKPKDTLMISRTPEVTCVVVDVSHEDPEVKFNWYVDGVEVHNAKTKPREEQYNSTYRVVSVLTVLHQDWLNGKEYKCKVSNKALPAPIEKTISKAKGQPREPQVYTLPPSRDELTKNQVSLTCLVKGFYPSDIAVEWESNGQPENNYKTTPPVLDSDGSFFLTSKLTVDKSRWQQGNVFSCSVMHEALHNHYTQKSLCLSPGK", "modifications": "MC-vc-PAB-MMAE on Cys of S239C and S442C (EU numbering)", "notes": "Biparatopic knob-into-hole VHH-hFc heterodimer, DAR 4; The assignment of T366Y to the first named VHH and Y407T to the second follows the order of the name; No paragraph spells out this pair; also called A06-E06 hFc-vcPAB-MMAE; A06-E06hFc-vc-MMAE"}, "B2": {"name": "A06 E10-hFc (S239/442C T366Y/Y407T), [G4S]3 linker, MC-vc-PAB-MMAE conjugate, #664 (Fc fusion, DAR 4)", "chain 1": "B1 chain 1", "chain 2": "QVQLVESGGGLVQAGGSLRLSCAVSGRALSDYNIGWFRQAPGKEREFVARKTWDGSSTRYDDSVKGRFTVSIEDAKNTAYLQMSSLKTEDTAVYYCAAGRYSRARGWEYDYWGQGTQVTVSSGGGGSGGGGSGGGGSEPKSSDKTHTCPPCPAPELLGGPCVFLFPPKPKDTLMISRTPEVTCVVVDVSHEDPEVKFNWYVDGVEVHNAKTKPREEQYNSTYRVVSVLTVLHQDWLNGKEYKCKVSNKALPAPIEKTISKAKGQPREPQVYTLPPSRDELTKNQVSLTCLVKGFYPSDIAVEWESNGQPENNYKTTPPVLDSDGSFFLTSKLTVDKSRWQQGNVFSCSVMHEALHNHYTQKSLCLSPGK", "modifications": "MC-vc-PAB-MMAE on Cys of S239C and S442C (EU numbering)", "notes": "Biparatopic knob-into-hole VHH-hFc heterodimer, DAR 4; The assignment of T366Y to the first named VHH and Y407T to the second follows the order of the name; No paragraph spells out this pair; also called A06-E10 hFc-vcPAB-MMAE; A06-E10hFc-vc-MMAE"}, "B3": {"name": "A06 F05-hFc (S239/442C T366Y/Y407T), [G4S]3 linker, MC-vc-PAB-MMAE conjugate, #665 (Fc fusion, DAR 4)", "chain 1": "B1 chain 1", "chain 2": "B2 chain 2 with V24A, L29F, S30G, K51R, E73D, D74N, S84N, A104V", "modifications": "MC-vc-PAB-MMAE on Cys of S239C and S442C (EU numbering)", "notes": "Biparatopic knob-into-hole VHH-hFc heterodimer, DAR 4; also called A06-F05 hFc-vcPAB-MMAE; A06-F05 hFc-vc-MMAE"}}, "note": "Residue numbers refer to the chain shown, from its start. Names and notes keep the numbering of the source.", "data": [{"molecular_target": "T1, human ALPPL2 (alkaline phosphatase, germ cell type) expressed on the surface of CHO cells (human, UniProt P10696 20-503)", "T1 sequence (P10696 20-503)": "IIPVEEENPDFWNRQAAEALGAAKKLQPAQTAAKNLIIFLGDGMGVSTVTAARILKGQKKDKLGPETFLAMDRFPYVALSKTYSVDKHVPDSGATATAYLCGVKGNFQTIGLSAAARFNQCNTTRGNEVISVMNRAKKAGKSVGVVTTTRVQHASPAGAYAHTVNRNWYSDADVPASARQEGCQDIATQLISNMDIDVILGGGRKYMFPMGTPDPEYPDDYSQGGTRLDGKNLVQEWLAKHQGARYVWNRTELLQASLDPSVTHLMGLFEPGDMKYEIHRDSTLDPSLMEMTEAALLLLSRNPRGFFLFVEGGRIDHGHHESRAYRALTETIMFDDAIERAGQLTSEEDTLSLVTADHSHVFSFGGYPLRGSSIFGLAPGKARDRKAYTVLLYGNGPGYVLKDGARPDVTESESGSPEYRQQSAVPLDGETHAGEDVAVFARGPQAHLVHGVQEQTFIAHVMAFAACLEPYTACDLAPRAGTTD", "experiment": "cell-based or functional assay", "units": {"IC50 at 96 h, cell-killing of CHO-ALPPL2 cells": "nM"}, "values": [{"binder": "B1", "IC50 at 96 h, cell-killing of CHO-ALPPL2 cells": 8.6}, {"binder": "B2", "IC50 at 96 h, cell-killing of CHO-ALPPL2 cells": 7.3}, {"binder": "B3", "IC50 at 96 h, cell-killing of CHO-ALPPL2 cells": 7.9}]}, {"molecular_target": "T2, human ALPL (tissue non-specific alkaline phosphatase) expressed on the surface of CHO cells (human, UniProt P05186 18-501)", "T2 sequence (looked up)": "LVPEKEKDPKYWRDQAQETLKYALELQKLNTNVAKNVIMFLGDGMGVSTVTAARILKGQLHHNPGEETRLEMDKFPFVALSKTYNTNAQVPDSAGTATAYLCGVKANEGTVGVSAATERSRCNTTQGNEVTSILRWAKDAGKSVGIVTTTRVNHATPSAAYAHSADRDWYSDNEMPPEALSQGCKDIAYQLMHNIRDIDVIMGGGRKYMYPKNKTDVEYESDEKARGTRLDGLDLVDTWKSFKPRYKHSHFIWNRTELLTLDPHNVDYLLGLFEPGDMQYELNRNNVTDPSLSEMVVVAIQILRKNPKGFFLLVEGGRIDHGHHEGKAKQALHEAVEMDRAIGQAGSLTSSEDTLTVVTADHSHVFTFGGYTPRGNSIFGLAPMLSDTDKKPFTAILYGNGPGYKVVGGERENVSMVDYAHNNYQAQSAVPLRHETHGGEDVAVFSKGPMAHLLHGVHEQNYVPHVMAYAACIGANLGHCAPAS", "experiment": "cell-based or functional assay", "units": {"IC50 at 96 h, cell-killing of CHO-ALPL cells": "nM"}, "values": [{"binder": "B1", "IC50 at 96 h, cell-killing of CHO-ALPL cells": "> 1000"}, {"binder": "B2", "IC50 at 96 h, cell-killing of CHO-ALPL cells": "> 1000"}, {"binder": "B3", "IC50 at 96 h, cell-killing of CHO-ALPL cells": "> 1000"}]}, {"molecular_target": "T3, human ALPI (intestinal alkaline phosphatase) expressed on the surface of CHO cells (human, UniProt P09923 20-503)", "T3 sequence (looked up)": "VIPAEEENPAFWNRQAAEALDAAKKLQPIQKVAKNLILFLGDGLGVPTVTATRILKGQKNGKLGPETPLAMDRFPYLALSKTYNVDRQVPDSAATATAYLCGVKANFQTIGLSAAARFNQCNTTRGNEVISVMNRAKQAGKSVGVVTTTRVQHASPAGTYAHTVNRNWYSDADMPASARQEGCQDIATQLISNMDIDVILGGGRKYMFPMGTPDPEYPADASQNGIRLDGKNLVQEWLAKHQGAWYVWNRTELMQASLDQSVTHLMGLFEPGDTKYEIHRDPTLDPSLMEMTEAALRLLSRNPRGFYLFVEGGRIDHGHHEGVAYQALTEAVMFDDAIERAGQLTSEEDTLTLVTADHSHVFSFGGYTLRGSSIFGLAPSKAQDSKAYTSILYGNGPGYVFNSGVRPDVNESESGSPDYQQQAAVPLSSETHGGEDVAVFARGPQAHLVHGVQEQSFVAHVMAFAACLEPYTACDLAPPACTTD", "experiment": "cell-based or functional assay", "units": {"IC50 at 96 h, cell-killing of CHO-ALPI cells": "nM"}, "values": [{"binder": "B1", "IC50 at 96 h, cell-killing of CHO-ALPI cells": "> 1000"}, {"binder": "B2", "IC50 at 96 h, cell-killing of CHO-ALPI cells": "> 1000"}, {"binder": "B3", "IC50 at 96 h, cell-killing of CHO-ALPI cells": "> 1000"}]}, {"molecular_target": "T2, human ALPL (tissue non-specific …)", "experiment": "flow cytometry, CHO-ALPL cells", "values": [{"binder": "B1", "binding result": "no binding (tested: 350 nM (highest concentration))"}, {"binder": "B2", "binding result": "no binding (tested: 350 nM (highest concentration))"}, {"binder": "B3", "binding result": "no binding (tested: 350 nM (highest concentration))"}]}, {"molecular_target": "T3, human ALPI (intestinal alkaline …)", "experiment": "flow cytometry on CHO-ALPI cells", "units": {"MFI on CHO-ALPI cells at 350 nM as percent of MFI on CHO-ALPP cells (KDapp not-determinable)": "%"}, "values": [{"binder": "B1", "MFI on CHO-ALPI cells at 350 nM as percent of MFI on CHO-ALPP cells (KDapp not-determinable)": "≤ 1"}, {"binder": "B2", "MFI on CHO-ALPI cells at 350 nM as percent of MFI on CHO-ALPP cells (KDapp not-determinable)": "≤ 1"}, {"binder": "B3", "MFI on CHO-ALPI cells at 350 nM as percent of MFI on CHO-ALPP cells (KDapp not-determinable)": "≤ 1"}]}, {"molecular_target": "T1, human ALPPL2 (alkaline phosphatase, …)", "experiment": "flow cytometry on CHO-ALPPL2 cells, apparent KD (KDapp)", "protocol": "(§1) Biparatopic VHH-hFc drug conjugates were assessed for human ALPP, ALPPL2, ALPI and ALPL cell-surface binding by flow cytometry. Binders were screened on CHO cells stably expressing human ALPP, ALPPL2, ALPI or ALPL.\n(§2) Cell surface binding of test agents to hALPP isoforms was characterized in four CHO-ALPP isoform transfectant cell lines (CHO-ALPP, CHO-ALPPL2, CHO-ALPI and CHO-ALPL) and the resulting KDapp values determined. Adherent cells were detached from tissue culture flasks by incubating with 0.1% EDTA/PBS solution at 37° C. for […] or until cells detached easily. Cells were re-suspended in ice-cold PBS/2% FCS in 15 ml tubes and centrifuged at 1700 rpm for 5 mins at 4° C. Supernatant was removed and the cell pellet re-suspended in PBS/2% FCS. […] Cells were incubated with 100 μl of test agents at a range of concentrations, plus controls for 1 hr on ice. The sample plate was centrifuged at 1700 rpm for 5 mins at 4° C. The supernatant was removed, and a wash performed by re-suspending the cell pellets in 0.25 mL of ice-cold PBS/2% FCS using a multichannel pipette. Samples were again centrifuged at 1700 rpm for 5 min at 4° C. Supernatant was removed and two further washes performed as described. After the final wash and centrifugation step, excess liquid was removed by blotting the plate on tissue paper. Binding of VHH-hFc agents was determined by adding 100 μl of Fitc-anti-human Ab (ThermoFisher) and incubating for 30 mins on ice in the dark. Wash steps were performed as described previously. All cell pellets were finally re-suspended in 0.28 ml of ice-cold PBS/2% FCS and left on ice in the dark prior to analysis on a Merck-Millipore Guava EasyCyte HT or Thermo Fisher Attune N×T flow cytometer.", "units": {"Kd": "nM"}, "values": [{"binder": "B1", "Kd": 4.2}, {"binder": "B2", "Kd": 3.7}, {"binder": "B3", "Kd": 4.9}]}, {"molecular_target": "T4, human ALPP (alkaline phosphatase, placental type) expressed on the surface of CHO cells (human, UniProt P05187 23-506)", "T4 construct": "also called CHO-ALPP; hALPP", "T4 sequence (P05187 23-506 limits assumed)": "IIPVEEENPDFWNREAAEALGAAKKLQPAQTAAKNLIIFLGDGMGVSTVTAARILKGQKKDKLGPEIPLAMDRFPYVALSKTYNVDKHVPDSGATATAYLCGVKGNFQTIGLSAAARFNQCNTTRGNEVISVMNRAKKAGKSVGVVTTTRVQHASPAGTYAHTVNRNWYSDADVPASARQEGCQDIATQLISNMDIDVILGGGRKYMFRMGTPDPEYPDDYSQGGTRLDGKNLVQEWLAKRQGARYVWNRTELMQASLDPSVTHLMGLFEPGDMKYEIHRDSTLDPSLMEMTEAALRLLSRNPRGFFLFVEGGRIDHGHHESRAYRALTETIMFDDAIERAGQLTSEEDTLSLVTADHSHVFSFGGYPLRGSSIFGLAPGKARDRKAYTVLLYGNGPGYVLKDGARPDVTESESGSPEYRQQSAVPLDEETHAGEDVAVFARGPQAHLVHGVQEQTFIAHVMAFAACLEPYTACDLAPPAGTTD", "experiment": "flow cytometry on CHO-ALPP cells, apparent KD (KDapp)", "protocol": "as §1, §2", "units": {"Kd": "nM"}, "values": [{"binder": "B1", "Kd": 8.5}, {"binder": "B2", "Kd": 8.5}, {"binder": "B3", "Kd": 9.8}]}]}
